According to the supplement of paper PMC9170038:

System: MS2 coat protein
Assay: apparent KD of MS2 coat protein; higher = weaker reporter binding
Conditions: Eterna round: R107
Procedure, shortened: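 Apparent KD per design is the median of normalised cluster binding-curve fits. Designed RNA switches transcribed on-chip from Illumina sequencing clusters were titrated with SNAP-549-labelled MS2 coat protein in twofold steps from 0.7 or 1.5 nM to 3 µM, with 0.8–1.5 h down to 10–20 min per step. Buffer: 100 mM Tris-HCl pH 7.5, 80 mM KCl, 4 mM MgCl2, without or with constant ligand.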

[1] = input ligand: theophylline 20 uM
[2] = input ligand: theophylline 2 mM
[3] = input ligand: tryptophan 2.4 mM

| Sequence | apparent KD of MS2 coat protein (input ligand: arginine 13.2 mM) | apparent KD of MS2 coat protein (input ligand: none) | apparent KD of MS2 coat protein [1] | apparent KD of MS2 coat protein [2] | apparent KD of MS2 coat protein [3] |
| --- | --- | --- | --- | --- | --- |
| CUGCCAUGCAGAGAUACCAGUGCGCUCAGCACAUGAGGAUCACCCAUGUAGGAUGCCAAUCACCCUUGGCAGCUCUGCAUGGCAG [~`&)_] | 15.5 nM | 15.7 nM | 22.8 nM | 12.8 nM | 16.3 nM |
| CUGCCUGCCUCACAUGAGGAUCACCCAUGUCGAGGACCGGUACGGCCGCCACUCGUCGUCGGUAAUACAGGCAUUGAAUAAUAUA [Esgeusla] | 9.88 nM |  | 14.5 nM | 11.9 nM |  |
| CUGCUACAUACGGCCGCCACUUUAAACAUGAGGAUCACCCAUGUACGGAAGGGUGGUAAAUGUUAAAGGACCGGGUAUGUAGCAA [Tryp B Ex t1] | 64.4 nM |  | 296 nM | 293 nM |  |
| CUUAUUUGCUGAAGGAGCGCCCGAGGAGAAGACAUGAGGAUCACCCAUGUAUAUAGUAUAUGGCAGGUAGGUCGCGGUGGGUAGG [Arginine B Same State; Euphoria Solution 3] | 28.1 nM | 30 nM | 65 nM | 31.2 nM | 26.9 nM |
| CUUGACAUGAGGAUCACCCAUGUUGGUAAACGAGGACCGGUACGGCCGCCACUCGGUUACGUGUAGUACCGGUAAGAUCCAGGGU [Default title] | 24.8 nM |  | 42.6 nM | 39 nM |  |
| CUUGAGACAUGAGGAUCACCCAUGUCCGAAGGAGCGUGCGAAAGCACAGGUAGGUCGCGGACAUGAGGAUCACCCAUGUGAGCGA [EAA NP+V+V2 #7 DOUBLE] | 13.8 nM | 21.8 nM | 25.9 nM | 40.2 nM | 22 nM |
| CUUGGCUGUGCGGCCGCCACUGGCUCAUCCUGCAUUACAUGAGGAUCACCCAUGUUGCGGCCUCCCAGGACCGGGCAUAGCCUGA [Usesties] | 127 nM |  | 702 nM | 684 nM |  |
| GAACAUGAGGAUCACCCAUGUUAAACAGAUACCAGUGAUAUAAUACACCCUUGGCAGCUGAAGCUGAAUAAUAAUUCCCUCAAGC [#21 SameState-TheophyllineA] | 13.4 nM |  | 17 nM |  | 10.5 nM |
| GAAUAAAGUAGAACACAAGACUCCUGAGAAGGAGCGCAGUCAACUGCAGGUAGGUCGCUCAGGAACACAUGAGGAUCACCCAUGU [Disoonlate] | 16.9 nM | 26.6 nM | 30.4 nM | 32.3 nM | 23.9 nM |
| GAAUUUAUUUGAAGGAGCGUCGAAAAUGGGUAAACAUGAGGAUCACCCAUGUAAAGGGAACGACAGGUAGGUCGCAAAUGGAUUC [AstromonsSSArgB#27] | 126 nM | 206 nM | 259 nM | 224 nM | 188 nM |
| GACCCAUGAGUUGCAAAAGCUCAUGGGUCGCGAGGACCGGUACGGCCGCCACUCGGCUGUACAUGAGGAUCACCCAUGUCAGGGU [#1 Same State - Tryptophan A Attempt #26 (HarryS)] | 54.4 nM |  | 615 nM | 845 nM |  |
| GACUAACAUGAGGAUCACCCAUGUGAAGAUACCAGUAAUUUCACCUACCCUUGGCAGCUUUUUUUGAACGGCCUGAAUGCCUUGU [theeternabot_sameState_MS2_Theo_A_14] | 12.2 nM |  | 17.5 nM |  | 11.9 nM |
| GACUCUGUCGGAAGGAGCGCAGAGCCGGUCUUCUACAUGAGGAUCACCCAUGUGCUGGUUAUGCAGGUAGGUCGCCGACGCGUGG [Ismatiza] | 17 nM | 27.1 nM | 40.2 nM | 27.2 nM | 24.6 nM |
| GACUGUAAAAUAUGACUCAGGGUGACGUCCCGAGGACCGGUACGGCCGCCACUCGAGCGAAUACAUGAGGAUCACCCAUGUAGUC [theeternabot_exclusion_MS2_Trp_A_15] | 20.5 nM | 45.4 nM | 61.5 nM | 81.2 nM | 54.6 nM |
| GAGCUCGUGGACUGGCGUGCUCCGCUCCGUCGAGGACCGGUACGGCCGCCACUCGACAUGAGGAUCACCCAUGUGUGAGCUCGCG [#1 Exclusion - Tryptophan A Attempt #20 (HarryS)] | 35.3 nM |  | 193 nM | 134 nM |  |
| GAGCUGAUGUAGAAAUUUUAUUUAUGAGAUACCAGUACAGAAAUGUACCCUUGGCAGCUCAAUUUUACAUGAGGAUCACCCAUGU [Ex Theophylline A 13] | 16.8 nM |  | 12.5 nM |  | 11.5 nM |
| GAGCUGAUGUAGAGUGGAUAUCCUUGAGAUACCAGUACAGAAAUGUACCCUUGGCAGCUCUUCUUUACAUGAGGAUCACCCAUGU [Ex Theophylline A 24] | 12.8 nM |  | 14.3 nM |  | 12.5 nM |
| GAGCUGAUGUAGGGCGGAUAUCCGUGAGAUACCAGUACAGAAAUGUACCCUUGGCAGCUCUUCCUUACAUGAGGAUCACCCAUGU [Ex Theophylline A 26] | 23.1 nM |  | 25.5 nM |  | 19.4 nM |
| GAGGAAACUCACAUGAGGAUCACCCAUGUACGAGGACCGGUACGGCCGCCACUCGAAACCAUGGGCGGUUGUACAUGGAAACAUG [Design 2] | 21.4 nM |  | 33.3 nM | 34.9 nM |  |
